Measurements taken from patent US20100068195A1.

Key:
[1] = molecular target: mannose-6-phosphate (M6P) receptor; assay: M6P receptor affinity column (Affi-Gel 15): 6 ug GALNS loaded, eluted with a mannose-6-phosphate gradient, quantified by GALNS ELISA
[2] = molecular target: mannose-6-phosphate (M6P) receptor; assay: M6P receptor plate binding assay: plates coated with 4 ug/mL M6P receptor, GALNS 0.16-10 nM, bound enzyme read by 4MU-Gal-6S activity, single-site fit
[3] = molecular target: mannose-6-phosphate (M6P) receptor; assay: M6P receptor plate binding assay (receptor-coated plate, bound enzyme read by activity)

B1: recombinant human N-acetylgalactosamine-6-sulfatase (GALNS) produced from G71S clone 4 (enzyme)
chain: APQPPNILLLLMDDMGWGDLGVYGEPSRETPNLDRMAAEGLLFPNFYSANPLCSPSRAALLTGRLPIRNGFYTTNAHARNAYTPQEIVGGIPDSEQLLPELLKKAGYVSKIVGKWHLGHRPQFHPLKHGFDEWFGSPNCHFGPYDNKARPNIPVYRDWEMVGRYYEEFPINLKTGEANLTQIYLQEALDFIKRQARHHPFFLYWAVDATHAPVYASKPFLGTSQRGRYGDAVREIDDSIGKILELLQDLHVADNTFVFFTSDNGAALISAPEQGGSNGPFLCGKQTTFEGGMREPALAWWPGHVTAGQVSHQLGSIMDLFTTSLALAGLTPPSDRAIDGLNLLPTLLQGRLMDRPIFYYRGDTLMAATLGQHKAHFWTWTNSWENFRQGIDFCPGQNVSGVTTHNLEDHTKLPLIFHLGRDPGERFPLSFASAEYQEALSRITSVVQQHQEALVPAQPQLNVCNWAVMNWAPPGCEKLGKCLTPPESIPKKCLWSH
modifications: Cys at position 53 of the precursor (position 79 of SEQ ID NO:4) converted to Calpha-formylglycine (FGly), about 90%; N-linked glycans at Asn178 (bis-phosphorylated mannose 7, BPM7) and Asn397 (oligomannose-type), numbered on the secreted polypeptide
M6P Receptor Column Binding: % Bound [1]: 56% | Kd [2]: 2.4 nM

B2: recombinant human N-acetylgalactosamine-6-sulfatase (GALNS) produced from G71S clone C2 (enzyme)
chain: B1 chain
modifications: active site Cys at position 53 of the precursor (position 79 of SEQ ID NO:4) converted to Calpha-formylglycine (percent not printed for this clone); N-linked glycans at Asn178 and Asn397, bis-phosphorylated oligomannose 0.69 mol/mol
Kd [3]: 5.7 nM
